# Laboratory results taken from US20230212533.
# T1: CycN cytochrome c protein (Pseudomonas putida S16)
# T1 chain: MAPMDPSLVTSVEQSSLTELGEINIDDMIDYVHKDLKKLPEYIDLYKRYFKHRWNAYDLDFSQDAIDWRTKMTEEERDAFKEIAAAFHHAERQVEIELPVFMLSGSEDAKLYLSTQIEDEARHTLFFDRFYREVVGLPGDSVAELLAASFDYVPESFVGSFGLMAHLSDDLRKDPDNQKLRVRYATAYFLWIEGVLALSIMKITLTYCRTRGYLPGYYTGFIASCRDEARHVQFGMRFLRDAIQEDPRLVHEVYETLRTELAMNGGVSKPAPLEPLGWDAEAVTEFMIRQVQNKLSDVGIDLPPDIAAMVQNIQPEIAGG
# Experiments:
# [1] = molecular target: Bovine mitochondrial cytochrome c, P62894
# Chain of Bovine mitochondrial cytochrome c, P62894 (P62894 2-105): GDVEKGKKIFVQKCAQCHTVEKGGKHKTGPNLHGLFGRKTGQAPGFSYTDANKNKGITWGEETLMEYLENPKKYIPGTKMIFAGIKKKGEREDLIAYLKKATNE
# [2] = molecular target: T1, CycN cytochrome c protein (Pseudomonas …)
protein,measurement,setting,value
"NicA2 nicotine oxidoreductase (wild-type, Pseudomonas putida S16) (protein) TQKTNRASTVKGGFDYDVVVVGGGFAGATAARECGLQGYRTLLLEARSRLGGRTFTSRFAGQEIEFGGAWVHWLQPHVWAEMQRYGLGVVEDPLTNLDKTLIMYNDGSVESISPDEFGKNIRIAFEKLCHDAWEVFPRPHEPMFTERARELDKSSVLDRIKTLGLSRLQQAQINSYMALYAGETTDKFGLPGVLKLFACGGWNYDAFMDTETHYRIQGGTIGLINAMLTDSGAEVRMSVPVTAVEQVNGGVKIKTDDDEIITAGVVVMTVPLNTYKHIGFTPALSKGKQRFIKEGQLSKGAKLYVHVKQNLGRVFAFADEQQPLNWVQTHDYSDELGTILSITIARKETIDVNDRDAVTREVQKMFPGVEVLGTAAYDWTADPFSLGAWAAYGVGQLSRLKDLQAAEGRILFAGAETSNGWHANIDGAVESGLRAGREVKQLLS","reduction of bovine cytochrome c, UV-VIS absorbance 250-600 nm for 15 minutes; 6.84 µM bovine cytochrome c with NicA2 and nicotine",[1],The bovine mitochondrial cytochrome c was not efficiently reduced by this system
same,"kobs for the second phase, stopped-flow at 542 nm",[2],invariant at ˜5.5 s^-1 independent of the CycNox concentration used
same,"reduction of CycN heme, UV-VIS absorbance (Soret band, 410 and 550 nm); 3.75 µM CycN, 30 nM NicA2, 100 µM nicotine",[2],"a characteristic increase and shift of Soret banding pattern was observed, which indicated that CycN had become reduced"
same,"time to complete electron transfer, anaerobic stopped-flow; 15 µM NicA2-Flred mixed with excess CycNox",[2],"Electron transfer between NicA2-Flred and CycNox appeared to be very rapid, being complete in under one second"
